{"source": "paper PMC4507180", "key": {"[1]": {"molecular_target": "DndB protein of Salmonella enterica serovar Cerro 87 (Salmonella enterica serovar Cerro 87)", "assay": "SEC; HiLoad 16/60 Superdex 200; 20 mM Tris-HCl pH 8.0, 150 mM NaCl; 0.7 mL/min; calibrated with myoglobin, ovalbumin, albumin, phosphorylase b, gamma-globulin; native mass 79 kDa"}, "[2]": {"molecular_target": "T1, DndB (Salmonella enterica serovar Cerro 87) (UniProt E2D676)", "T1 sequence": "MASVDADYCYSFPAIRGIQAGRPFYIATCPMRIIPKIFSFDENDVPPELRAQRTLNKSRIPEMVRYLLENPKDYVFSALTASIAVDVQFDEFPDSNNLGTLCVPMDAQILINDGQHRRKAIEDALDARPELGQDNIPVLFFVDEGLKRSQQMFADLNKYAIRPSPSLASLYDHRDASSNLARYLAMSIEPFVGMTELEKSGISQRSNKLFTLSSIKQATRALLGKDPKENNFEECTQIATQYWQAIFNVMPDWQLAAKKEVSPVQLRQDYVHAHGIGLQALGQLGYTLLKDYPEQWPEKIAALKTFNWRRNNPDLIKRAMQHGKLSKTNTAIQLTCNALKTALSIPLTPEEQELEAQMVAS", "assay": "EMSA", "conditions": "EMSA: 20 mM Tris-HCl pH 8.0, 50 mM KCl, 10 mM MgCl2, 5 mM EDTA, 10 mM DTT, 5% glycerol, room temperature 30 min, 20 nM DNA; footprinting: 25 C 30 min, 200 ng …"}, "[3]": {"molecular_target": "T2, DndB C29S C29S (Salmonella enterica serovar Cerro 87) (UniProt E2D676)", "T2 sequence": "T1 sequence with C29S", "assay": "EMSA", "conditions": "EMSA: 20 mM Tris-HCl pH 8.0, 50 mM KCl, 10 mM MgCl2, 5 mM EDTA, 10 mM DTT, 5% glycerol, room temperature 30 min, 20 nM DNA; footprinting: 25 C 30 min, 200 ng …"}}, "note": "Residue numbers refer to the chain shown, from its start.", "data": [{"substance": "DndB protein of Salmonella enterica serovar Cerro 87 (natural protein)", "values": [{"measurement": "stoichiometry N", "setting": "[1]", "value": 2}]}, {"substance": "GCTGTAATCCGTGTAAAAATCGAATGAATTGAGTTACGTGATATTTTACGTAATGCTTAATAAAATTTATAGTTTTTTTTATGTTTTACGTGATTTTTTGCGTACAGGGTTCCATATCTGAGA (double strand) [B1]", "values": [{"measurement": "binding", "setting": "[2]", "value": 300, "unit": "nM"}, {"measurement": "binding", "setting": "[3]", "value": 90, "unit": "nM"}]}]}
